Consider one molecule from paper PMC9881875 (bioRxiv, 2023).

Test in all cases: fluorescence polarisation
For assay [1], the target named is NHERF2 PDZ2 (UniProt Q15599 142-280).
Assay [2] deals with MAGI1 PDZ2 (UniProt Q96QZ7 471-554).
Assay [3] concerns the target DLG1 PDZ1 (UniProt Q12959 220-317).
For assay [4], the target named is SNX27 PDZ (UniProt Q96L92 41-135).

DLG1 PDZ1, sequence (Q12959 220-317): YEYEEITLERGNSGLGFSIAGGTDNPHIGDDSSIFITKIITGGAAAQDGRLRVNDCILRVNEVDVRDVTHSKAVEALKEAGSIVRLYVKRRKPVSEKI
MAGI1 PDZ2, sequence (Q96QZ7 471-554): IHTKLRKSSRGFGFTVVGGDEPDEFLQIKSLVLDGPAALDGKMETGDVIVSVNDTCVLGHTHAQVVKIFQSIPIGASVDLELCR
NHERF2 PDZ2, sequence (Q15599 142-280): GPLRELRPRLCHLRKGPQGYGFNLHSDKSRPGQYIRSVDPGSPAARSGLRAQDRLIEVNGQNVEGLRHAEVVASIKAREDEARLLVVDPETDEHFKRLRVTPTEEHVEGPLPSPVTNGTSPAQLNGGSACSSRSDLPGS

As for SSRTVQDTRL [_(SSRT)CFTR peptide], the results for the Ki in assay [1], in assay [3] and in assay [4] were 1.7 ± 0.4 µM, greater than 1000 µM and 0.46 ± 0.11 µM, respectively. Besides, the IC50 in assay [2] was greater than 1000 µM.

The term Ki denotes the dissociation constant of the complex between target and ligand, obtained from inhibition or displacement. Usually IC50 stands for the concentration at which inhibition is half-maximal. A high value points to lower potency.
